Common to all, as to assay: SEC; Superose-6 10/300 GL (FPLC) in 25 mM Na-PIPES pH 7.2, 140 mM NaCl, 2 mM DTT, 0.026% C12E10; oligomeric state judged from the peak position against wild-type mPiezo1
For orientation: SEC sorts molecules by how far they enter the pores of the column.

Assay [1] addresses mPiezo1-ΔL15-16 (657-677) (mouse) (UniProt E2JF22).
In assay [2] the target is mPiezo1-ΔL19-20 (870–921) (mouse) (UniProt E2JF22).
The target in the next assay is mouse Piezo1 (mouse) (UniProt E2JF22). The settings on record: remark: other sources report otherwise.

One may read the stoichiometry N as a count of units in the complex or per binding partner.

In turn, “mPiezo1-ΔL15-16 (657-677), E2JF22 1-656; E2JF22 678-2547” had a stoichiometry N in assay [1] of 3.

On to “mPiezo1-ΔL19-20 (870–921), E2JF22 1-869; E2JF22 922-2547”, for which the stoichiometry N in assay [2] was found to be 3.

Consider mouse Piezo1, E2JF22 1-2547, for which, in the assay with mouse Piezo1 (mouse), the stoichiometry N stood at 3.

The values are drawn from paper PMC5880808, “A lever-like transduction pathway for long-distance chemical- and mechano-gating of the mechanosensitive Piezo1 channel” (Nature Communications, 2018).
